Experimental data published in EP4588939A1 (Universitat de Barcelona, dated 2025).
Substitutions are numbered along the chain they refer to.

B1: 6A murine anti-IL13Rα2 monoclonal antibody (antibody, V domains shown)
VH: EVQLQQSGPELVKPGASVKISCKTSGYTFTEYTMHWVKQSHGKSLEWIGIINPNNGGTNYNQKFKGKATLTVDKSSSTAYMELRSLTSEDSAVYYCARPSATHYFDYWGQGTTLTVSS
VL: DIKMTQSPSSMYASLGERVTITCKASQDIKSYLSWFQQKPGKSPKTLIYRANRLVDGVPSRFSGSGSGQDYSLTISSLEYEDMGIYYCLQYDEFPLTFGAGTKLELK
notes: Tested as hybridoma supernatant; also called IL13Rα2_6A; clone 6A
B2: 143A murine anti-IL13Rα2 monoclonal antibody (antibody, V domains shown)
VH: DVQLVESGGGLVQPGGSRKLSCAASGFTFSSFGMHWVRQAPEKGLEWVAYISSGSSTIYYADTVKGRFIISRDNPKNTLFLQMTSLRSEDTAMYYCARKYEGYAMDYWGQGTSVTVSS
VL: B1 VL with K30N, Y87S
notes: Tested as hybridoma supernatant; also called IL13Rα2_143A; clone 143A
B3: 46A murine anti-IL13Rα2 monoclonal antibody (antibody, V domains shown)
VH: QVQLKQSGPGLVQPSQSLSITCTVSGFSITKYGVHWVRLSPGKGLEWLGVIWSGGSTDYNAAFISRLNISKDNSKSQVFFKMNSLQANDTAIYYCARDFGDTMDYWGQGTSVTVSS
VL: QIVLTQSPAIMSASLGERVTMTCTASSSVTSSYLHWYQQKPGSSPKLWIFSTSNLASGVPARFSGSGSGTSYSLTISSMEAEDAATYYCHQYHRSPLTFGAGTKLELK
notes: Tested as hybridoma supernatant; also called IL13Rα2_46A; clone 46A
B4: 82B murine anti-IL13Rα2 monoclonal antibody (antibody, V domains shown)
VH: B3 VH with I29L, K31S, L39Q, N68S, F99R, G100Y, T102A, M103F, S111T, V112L
VL: B3 VL with T30S, F50Y
notes: Tested as hybridoma supernatant; also called IL13Rα2_82B; clone 82B

molecular target: T1, human IL13Rα2 (interleukin-13 receptor subunit alpha-2) (human, UniProt Q14627 27-380); experiment: flow cytometry of hybridoma supernatants on IL13Rα2-transfected 300.19 cells; specificity further validated on IL13Rα2-transfected COS cells and U251 cells
T1 construct: whole, on cells; also called IL13Ra2
T1 sequence (looked up): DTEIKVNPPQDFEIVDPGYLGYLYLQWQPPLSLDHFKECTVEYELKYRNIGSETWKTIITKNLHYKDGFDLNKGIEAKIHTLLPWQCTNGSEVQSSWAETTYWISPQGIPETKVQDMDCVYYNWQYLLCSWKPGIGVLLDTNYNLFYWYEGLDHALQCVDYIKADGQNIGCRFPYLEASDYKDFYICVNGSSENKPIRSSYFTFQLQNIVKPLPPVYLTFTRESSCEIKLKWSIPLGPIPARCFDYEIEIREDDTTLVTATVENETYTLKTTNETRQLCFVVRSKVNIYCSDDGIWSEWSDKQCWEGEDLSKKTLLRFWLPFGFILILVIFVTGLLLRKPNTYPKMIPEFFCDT

Binding result, binds:
B1, B2, B3, B4
